Data on one molecule can be found in patent publication US20230279124A1.

This test concerns the target human IgE (human) (UniProt P01854). The test can be described thus: BLI (Octet RED 384), GI-305 captured on AHC biosensor, IgE 1.6 to 100 nM as analyte. A general note: BLI is a label-free optical method that tracks binding on a fibre tip over time.
Sequence of UniProt P01854 (P01854 other isoform, or with tags, fused parts or gaps): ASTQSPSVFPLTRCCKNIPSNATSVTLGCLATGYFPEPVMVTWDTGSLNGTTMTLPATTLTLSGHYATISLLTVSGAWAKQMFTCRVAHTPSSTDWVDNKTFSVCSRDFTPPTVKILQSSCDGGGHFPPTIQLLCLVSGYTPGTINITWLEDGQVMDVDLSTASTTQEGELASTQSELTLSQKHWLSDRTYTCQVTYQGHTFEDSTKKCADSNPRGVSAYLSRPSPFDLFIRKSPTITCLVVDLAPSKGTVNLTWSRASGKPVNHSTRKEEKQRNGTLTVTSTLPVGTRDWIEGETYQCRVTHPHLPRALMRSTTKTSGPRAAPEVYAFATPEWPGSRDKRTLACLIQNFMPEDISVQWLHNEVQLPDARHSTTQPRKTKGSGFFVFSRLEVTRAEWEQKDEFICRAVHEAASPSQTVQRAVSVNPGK

B1: GI-305 (FcεRIα ECD-Fc-anti-IL-4R scFv) fusion protein dimer (Fc fusion)
chain: VPQKPKVSLNPPWNRIFKGENVTLTCNGNNFFEVSSTKWFHNGSLSEETNSSLNIVNAKFEDSGEYKCQHQQVNESEPVYLEVFSDWLLLQASAEVVMEGQPLFLRCHGWRNWDVYKVIYYKDGEALKYWYENHNISITNATVEDSGTYYCTGKVWQLDYESEPLNITVIKAPREKYWLQGSGGGGSGGGGSGGGGSAESKYGPPCPPCPAPEAAGGPSVFLFPPKPKDQLMISRTPEVTCVVVDVSQEDPEVQFNWYVDGVEVHNAKTKPREEQFNSTYRVVSVLTVLHQDWLNGKEYKCKVSNKGLPSSIEKTISKAKGQPREPQVYTLPPSQEEMTKNQVSLTCLVKGFYPSDIAVEWESNGQPENNYKTTPPVLDSDGSFFLYSRLTVDKSRWQEGNVFSCSVLHEALHNHYTQKSLSLSLGGGGGSGGGGSGGEVQLVESGGGLEQPGGSLRLSCAGSGFTFRDYAMTWVRQAPGKCLEWVSSISGSGGNTYYADSVKGRFTISRDNSKNTLYLQMNSLRAEDTAVYYCAKDRLSITIRPRYYGLDVWGQGTTVTVSSGGGGSGGGGSGGGGSGGGGSDIVMTQSPLSLPVTPGEPASISCRSSQSLLYSIGYNYLDWYLQKSGQSPQLLIYLGSNRASGVPDRFSGSGSGTDFTLKISRVEAEDVGFYYCMQALQTPYTFGCGTKLEIK
For B1, the Kd is 0.5 nM, the off-rate (koff) stood at 9.74e-05 s⁻¹ and the kon came out at 201000 M⁻¹ s⁻¹.

Usually Kd stands for a measure of binding affinity in units of concentration. A low value points to tighter binding. As a reminder, the koff is the rate constant with which the complex falls apart. A higher koff goes with fast dissociation. One may read the kon as a measure of how fast the partners come together.
